Experimental data: the nanobody polyreactivity screen of Harvey et al. (2022)

Experiment: yeast display, Sf9 membrane polyspecificity reagent, FACS + sequencing; frameworks hold sequencing errors
Procedure, shortened: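 Sorting gates, low and high (top ~1%), were placed on anti-HA fluorescence to track expression and on streptavidin fluorescence to track reagent binding. A clone's polyreactivity label is taken from the gate it came out of. The reagent was 10% biotinylated, detergent-solubilized Sf9 membrane, applied for 1 hour at 4 °C to galactose-induced yeast display cells.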

Sequence	polyreactivity (PSR sort gate)
QVQLVESGGGLVQAGGSLRLSCAASGRTFFSNAMGWYRQAPGKERELVAAISNGDNTYYADSVKGRFTISRDNAKNTVYLQMNSLKPEDTAVYYCAKDYRWVWRKYGYWGQGTQVTVSS	low polyreactivity
QVRLVESGGGLVQAGGSLRLSCAASGFTFSPYAMGWYRQAPGKERELVAAITSSGGSTYYADSVKGRFTISRDNAKNTVYLQMNSLKPDDTAVSSCAKEIRYSSSVSESDYWGQGTQVSVSS	high polyreactivity
QVQLVESGGGLVQAGGSLRLSCAASTYLRLLMLWDGIDLRLGKKGSWLTLLTLVVNSTYYADSVKGRFTISRDNAKNTVFLQMNSLKPEDTAVYYCNVDPYGTYARTHLEYWGQGTQVTVSS	low polyreactivity
QVQLVESGGGLVQAGGSLRLSCAASGIIYYTYAMGWYRQAPGKERELVATISWDVDSTNYADSVKGRFTISRDNAKNTVYLQMNSLKPEDTALYYCAGDYTVDSYWYWVDYYEYGYWGQGTQVTVSS	high polyreactivity
QVQHVESGRGLVQAGGSLRLSCAASGRISYYYAMGWSRQAPGKEMELVAAITNVGGTYYADSVKGRFTISRDNAKNTVYLQMNSLKQEDTAVFYCAKDFPARHNYWYSSRFFDYWGQGTQGTVSS	low polyreactivity
QVQLVESGGGLVQAGGSLRLSCAASGSIFVYNAMGWYRQAPGKERELVAGITFIGGSTYYADSVKGRFTISRDNPKNTVYLQMNSLKPEDTAVYYCNADVAPGIFYGYDSWGQGTQVTVSS	low polyreactivity
QVQLVESGGGLVQAGGSLRLICAASGRTFVPNVMGWYRQAPGKERELVAAITSGGSTYYADSVKGRFTISRDNAKNTVYLQMNSLKPEDTAVYYCAKRTSWKYGYWGQGTQVTVSS	high polyreactivity
QVQLVESGGGLVQAGGSLRLSCAASGFTFNTNAMGWYRQAPGKERELVAAITSSGGSTYYADSVKGRFTISRDNAKNTVYLQMNSLKPEDTAVYYCNADVTLRLWAYYYYRYNYWGQGTQVTVSS	low polyreactivity
QVQLVESGGGIVQAGGSLRLSCAASGSTFDVNAMGWYRQAPGKERELVAAISWNSGSTYYADSVKGRFTISRDNAKNTVYLQMNSLKPEDTAVYYCAATYGTGRRSKYGYWGQGTQVTVSS	high polyreactivity
QVQLVDSGGGLVQAGGSLRLSCAASGSTFLYYSMGWYTQAPGKERELVAVISWSGVSTYYADSVKGRFTISRDNAKNSVYLQMNSLKPEDTAVYYCNTGNHYIRTYGYWGQGTQVTVSW	low polyreactivity
QVQLVESGGGLVQAGGSLRLSCAASGRIFPYNAMGWYIQGPGKERELVAAISGGGSSTYYADSVKGRFTISRDNAKNTVYLQMNSLKPEVTAVYYCAAQAWWDGEYDYWGQGTKVTVSS	high polyreactivity
QVQLVESGGGLVQAGGSLRLSCAASGFTFGHYAMGWSRQAPGKERELVAAISKSGTRTYYADSVKGRFTISRDNAKNTVYLQMNSLKPEDTAVYYCATTAYNGYDHWGQGTQVTVSS	high polyreactivity
QVQLVESGGGLVQAGGSLRLSCAASGSIFAPYAMGLYRQAPGKERELVAAIRSSGGSTHYADSVKGRFTISRDNAKNTVYLQMNSLKPEDTAVYYCARSYGWYRWAGYDYWGQGTQVTVSS	high polyreactivity
QVQLVESGGGLVQAGGSLRLSCAASGFIFSTYVMGWYRQAPGKERELVAAISASGGRTYYADSVKGRFTISRDTAKNTVYLQMNSLKPEDTAVFYCAAEITDTYRWALNYWGQGTQVTVSS	high polyreactivity
HVQLVESGGGLVQAGGSLRLSCAASGFIFQYYCMGWYRQATRKERELVAAIDSRGGSTYYADSVKGRFTISRDNAKNTVYLQMNSLNPADTAVYYCAAMGLYQGTLNHFYYWGQGTQVTVSS	low polyreactivity
QVQLVESGGGLVQAGGSLRLSCAASGSIFYWYVMVWYRQAPGKERELVATISDSTNYADSVKGRFTISRDNAKNTVYLQMNSLKPEDTAVYYCNARVRGLGKYESWGQGTQVTVSS	low polyreactivity
QVQLVESGGGLVQAGGSLRLSCASSGISFRRNAMGWYRQAPGKERELVAISTICGSTYYADSVNGRFTIARDNAKNTVYLQMNTLKPEDTAVYYCAAEGKSTGVYLDGGEGFAYDYWGQGTQVTVSS	low polyreactivity
QVQLVESGGGLVQAGGSLRLSCAASGSIFSWYAMGWYRQAPGKERELVAAIRWSGGRTYYADSVKGRFTISRDNAKNTVYLQMNSLKPEDTAVYYCAADFYPDEYYYWGQGTQVTVSS	high polyreactivity
QVQLGESGGGLVQAGGSLRLSCAASGRIFRWYAMGWYRQAPGKVRELVAAISRSGTSTYYADSVKGRFTISRDNAKNTVYLQMNSLKPEDTAVYYCAADAVIFGMDYWGQGTQVTVSS	low polyreactivity
QVQLVESGGGLVQAGGSLRLSCAASGFILGRYAMGWYRQAPGKERELVAAISIGGRTNYADSVKGRFTISRDNAKNTVYLQMNSLKPEDTEVYYCAVDRYVTYSLSNSLYEYWGQGTQVTVSS	low polyreactivity
QVQLVESGGGLVQAGGSLRLSCAASGSIFWSYAMGWYRQAPGKERELVAVINWSGGSTYYADSVKGRFTISRDNAKNTVYLQMTSLKPEDTAVYYCNKDLGPTKRPFTFDYWGQGTQVTVSS	low polyreactivity
QVQLVESGGGLVQAGGSLRLSCAASGFTFNKYAMGWYRQAPGKERELVAAISSSGGSTRYADSVKGRFTISRDNAKNTVYLQMNSLKPEDTAVYYCAVYVTRDSGWWLYDYWGQGTQVTVSS	high polyreactivity

Sequence	polyreactivity (PSR sort gate)
QVQLQESGGGLVQAGGSLRLSCAASGSISRYYDMGLYRQAPGKEREFVAGISGGAITYYADSVKGRFTISRDNAKNTVYLQMNSLKPVDTAVYYCAADTGVYQYHSYWGQGTQVTVSS	low polyreactivity
QVQLVESGGGLVQAGGSLRLSCAASGSTFFPNDKGWYRQAPGKERELVAAISWRGGNTYADSVKGLFTISRDNAKYTVYLQMNSLKPEDTAVYYCAAEFWYTYPYLVDYWGQGTLVTVSS	low polyreactivity
QVQLVESGGGLVQAGGSLRLSCAASGFTFKYYAMGWYRQAPGQERELVAAISSTGSTYYADSVKGRFTISRDNAKNTVYLQTNSLKPEDTAVYYCNKLFEYWGGDNDYWGRGTQVTVSS	high polyreactivity
QVQLVESGGGLVQAGGSLRLSCAASGSIFARYAMGWYRQAPGKERELVAAISSNSASTYYADSVKGRFTISRDNAKNTVYLQMNSLKPEDTAVYYCATAYRSYWLNDYWGQGTQVTVSS	low polyreactivity
QVQLVESGGVLVQSGVSLRLTCAASGITFNYNAMGWDSQAPGKERELVAAIRGSDSTTYYADSVKERFTISRDNAKNTVYLQMNSLKPEDTAVYYCAADYVQGFGFYYQWHYDYWGQGTQVTVSS	low polyreactivity
QVHLVESGGGLVQAAGILRLSSAPSGSIFPYYAMGWYRQAPGKEREFVAAINYAGGSTYYADSVKGRFTISRDNAKNTVYLQMNSLKPEDTAVYYCNARTFGPNGKHRYGYWGQGTQVTVSS	high polyreactivity
QVQLVESGGGLVQAGGSLRLSCAASGRTFDVYAMAWYRQAPGKERELVATISWRGTSTYYADSVKGRFTISRDNAKNTVYLQMNSLKPADTAVYYCAKDPQPDLYGSWGQGTQVTVSS	high polyreactivity
QVQLVESGGGLVQAGGSLRLSCAASGSIFSSNAMGWYRQAPGKERELVAAISSSGGSTYYADSVKGRFTISRDNAKNTVYLQKNSLKPEDTAVYYCATGKQVYGHYYWGQGTQVTVSS	low polyreactivity
QVQLVESGGGLVQAGGSLRLSCAASGIIFYHNAMGWYRQAPGKERELVASITEIGGSTYYADSVKGRFTISRDNAKNTVYLQMNSLKPEDTAVYYCAAGTLTSFSRYDYWGQGTQVTVSS	low polyreactivity
PVQLVESGGGLVQAGGSHRLSCAASGITFGVYPMGWYRQAAGKERELVAAISRRGASTYYADSVKGRFTISRDKAKNSVYLQMNSLKPEDTAVYYCAAYLARRQYDYWGQGTQVTVSS	high polyreactivity
QVQLVESGGGLVHAGGSLRLSCAASGNIITYNAMALYRQAPGKERELVAAITRGGNTNYADSVKGRFTISRDNAKNTVYLQMNSLKPEDTAVYFCAADRYVQLLGYFFEFDYWGQGSQVTVSS	low polyreactivity
QVQLVESGGGLVQAGGSLRLSCAPSGSIFRVYAMGWYRQAPGKERELVAAITIGTSTNYADSVKGRFTISRDNAKNTVYLQMNSLKPEDTAVYYCAAEWSYNLDSIASSPTSYDYWGQGTQVTVSS	low polyreactivity
QVQLVESGGGLVQAGGSLRLSCAASGSIFRYYDMGWYRQAPGKERELVAAISTSGVRTNYADSVKGRFTISRDNAKNTVYLQMNSLKPEDTAVYYCAARSQIYYRYRSYGYWGQGTQVTVSS	high polyreactivity
QVQLVESGGGLVQAGGSLRLSCAASGRTFDPYAMVWYRQAPGKERELVAAISSGGSTNYADSVKGRFTISRDNAMYTVYLQMNSLKPEDTAVYFCATDSGDGEGDYWGQGTQVTVSS	low polyreactivity
QVQLVESGGGLVQEGGSLRLSCAASGSTISSYAMGWYRQAPGKERELVAAITSGGSTYYADSVKGRFTFSRDNAKNTVYLQMNSLKPDDTAVYYCDLGSTTMDYWGQGTQVTVSS	low polyreactivity
QVQLVESGGGLVQEGGSLRLRCAASGSIFYRYAMGWYRQAPGKERELVAAISSTGSTYYADSVKGRFTISRDNAKNTVYLQMNSLKPEDTAVYYCAARQGYRSYRRYDYWGQGTQVTVSS	high polyreactivity
QVQLVESGGGLVQAGGSLRLSCAASGRIVSRYAMGCYRQAPGKERELVADISSSGGSTYYADSVKGRFTISRDNAKNTVYLQMNSMKPEDTAVYDCAVRKKRQYTGDYWGQGTQETVSS	high polyreactivity
QEKLQESGSGLVQAGGSLRLSCAASGNIFQDWVMRWYRQAPGKERELVAAISPGAITYYADSVKGRFTISRDNAKNTVYLQTNSLKPEDTAVYYCAAYYIVEYLHGYWGQGTRVTVSS	low polyreactivity
QVQLVESGGGLVQAGGSLRLSCAASGRIFTTYAMGWYRPAPGKERELVAAISQNGGSTYYADSVKGRFTISRDNAKNTVFLQMNSLKPEDTAVYYCNAGPAGYYDYDYWGQGTLVTVSS	low polyreactivity
QVQLVESGGGLVQAGGSLRLSCAASGRTFSYYAMGWYRQAPGKERELVAAIRRSSGTTYYADSVKGRFTISSDNAKNTVYLQMNSLKPEDTAVYYCNARSRRASIKRDYWGQGTQVTLSS	high polyreactivity
QVQLVESGGGLVQAGGSLRLSCAASGFIFYSNAMGWYRQAPGKERELVAAIRSTGSTSYADSVKGRFTISRDNAKNTVYLQMNSLKPEDTAVYYCAKVRYWRGYDYWGQGTQVTVSS	high polyreactivity
